# Results reported in the nanobody polyreactivity screen of Harvey et al. (2022).
# Experiment: yeast display, Sf9 membrane polyspecificity reagent, FACS + sequencing; frameworks hold sequencing errors
# Method in brief: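 Nanobodies from a synthetic yeast display library (Saccharomyces cerevisiae BJ5465), induced 36–48 hours with galactose, were stained 1 hour at 4 °C with 10% biotinylated, detergent-solubilized Sf9 membrane reagent, enriched on streptavidin microbeads, then FACS-sorted. Anti-HA (expression) and streptavidin (reagent binding) fluorescence set low and high (top ~1%) gates. Polyreactivity labels come from the gate of origin. Genes were colony-PCR amplified, MiSeq 2 × 250 sequenced and filtered by CDR length.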
row,Sequence,polyreactivity (PSR sort gate)
1,QVQLVESGGGLVQAGGSLSLSCAASGFIFGWYAMGWFRQAPGKERELVAAIYASGTRTYYADSVKGRFTISRDNAKNTVYLQMNSLKPEDTAVYYCNVYTKFVYAYDYWGQGTQVTVSS,high polyreactivity
2,QVQLVESGGGLLQAGGSLRLICAASGITFRYYTMGWYRQAPVKETELVAAITWSGSSTYYADSVKGRFTISRDNAKNTVYLQMNSLKPEDTAVYYCAKPYHQRSAKVDYWGQGTQVTVSS,low polyreactivity
3,QVQLVESGGGLVQAGGSLRLSCAASRLIVYQNAMGWYRQAPGKEREFVAAISWSGGRTYYADSVKGRFTISRDNAKNTVYLQMNSLKPEDTAVYYCAARFTYYTYEFEYWGQGTQVTVSS,high polyreactivity
4,QVQLLESGGGLVQAGGSLRLSCAASGSTFKKNAMGWYRQAPGKETELVAAISGIGTRTSYADSLKGRFTISRDNAKNTVYLQMNRLKPEDTAVYYCAARYYGFPSTLKYDYWGQGTQVTVSS,high polyreactivity
5,QVQLVESGGGLVQAGGSLRLSCAASGLIFWYYTMGWYRQAPGKERELVAAITIGGSTYYADSVKGRFTISRDNAKNTVYLQMNSLKPEDTAVYYCNTRRGRSQGGRYEYDYWGQGTQVTVSS,low polyreactivity
6,QVQLVESGGVLVQAGGSLRLSSAASGRTFFRYTMGWYRQAPGKERELVAAISRSDGTTYYADSVKGRFTISRDSAKNTVYLEMNSLKPEDTAVYYCAKSLPSGYYYWGQGTQVTVSS,low polyreactivity
7,QVQLVESGGGLVQAGGSLRLSCAASGSSFGGYARGWYRQAPGKERELVAAISNGDRTNYADSVKGRFTISRDNAKNTVYLQLNSQKPEYTAVYDCATQPLTWSSYRWDWRAQFDHWGQGTQVTVSS,low polyreactivity
8,QVQLVESGGGLVQAGGSLRLSCAASGSTFFLYAMGWYRQAPGKERELVAAINYIGGTYYADSVKGRFTISRDNAKNTVYLQMNSLKPEDTAVYYCAASYVGTIAGMDYWGQGTQVTVSS,low polyreactivity
9,QVQLVDSGGGVVQAGGSLLLSCPASGLIIKVYAMGWYRQAPGKERELVAAITYSGGSTDYADSVKGRFTISRDNAKNTVFLQMISLKPEDTAVYYCNVEKVGHVNSYGYDYWGQGTQVTVSS,low polyreactivity
10,QVQLVESGGGLVQAGGSLRLICAASGFTFAYYAMGWYRQAPGKERELVAAISSGGSTYYADSVKGRFTISRDNAKNTVYLQMNSLKPEDTAVYYCAARGGRPLIHHWPWYSWKYDYWGQGTQVTVSS,low polyreactivity
11,QVQLVESGGGLVQAGGSLRLSCAASGRTFSRYAMGWYRQAPGKERELVASIRSGGSTNYADSVKGRFTISRDNAKNTVYIQMNSLKPEDTAVYYCANVGRYWNPVYNSFYNFDYWGQGTQVTVSS,high polyreactivity
12,QVQLVESGGGLVQAGGSLRLSCAASGRTLEQYAMGWYRQAPRKERELVAAINKSGARTYYADSVKGRFTISRDNAKNSVYLQMNSQKPEDTAVYYCNTVGPSYLFDYWGQGTQVTVSS,high polyreactivity
13,QVQLVESVGGLVQAGGSLRLSCAASGSTFIIYAMGWYRQAPGKERELVATISTRGTSTYYADSVKGRFTISRDNEKNTVYLQMKSLKPEDTAVYYCNARRRGYGNRYTFDYWGQGTQVTVSS,high polyreactivity
14,QVPLVESGGGLVHAGGSLRLSCAASGIILHDNTMGWYRQAPGKERELVAAITSDGSTNYADSVKGRFTISSDNAKNTVYLQMNSLKPEDTAVYYCNTDDGPYTEFDYWRQGTQVTVSS,low polyreactivity
15,QVQLVESGGGLVQAGGSLRLSCAASGITLGRYAMGWYRQAPGKERELVAAISRSGGSTYYADSVKGRFTISRANAKTTVYLQMNSLKPEDTAVYYCNRRVYPTSDYDYWGQGTQVTVSS,high polyreactivity
16,QVQLVESGGGLVQAGGSLRLSCAASGSTFGWYAMGGYRQAPGKERELVAAISSGGSTYYADSVKGRFTISRDHAKYTVYLQMNSLKPEDTAVYYCAADIGYYYRYDYWGQGTQVTVSS,low polyreactivity
17,QVQLVESGGGLVQAGGSLRLSCAASGFTFKYYDMGWYRQAPGKERELVAAIDTSGGNTYYADSVKGRFTISRDNAKNTVYLQMNSLKPEDTAVYYCAATVPYYHDDYWGQGTQVTVSS,low polyreactivity
18,QVQLVESGGGLVQAGGSLRLSCAASGFTFRTYAMGWYRQAPGKERELVAAITGSGGSTYYADSVKGRFTISRDNAKNTVYLQMNSLKPEDTAVYYCNAVERSAFRGVRFDYDYWGQGTQVTVSS,high polyreactivity
19,QVQLVESGGGLVQAGGSLRLSCAASGFILGQYTMGWYRQAPGKERELVASINGSDGITYYADSVKGRFTISRDNAKNTVYLQMNSLKPEDTAVYYCARPPRHYTFWGRRFYYWGQGTQVTVSS,low polyreactivity
20,QVQLVESGGGLVQAGGSLRLSCAASGRTFARYAKGWYRQAPGKERELVAVISRTGSTYYADSVKGRFTISRDNAKNTVYLQMNSLKPEDTAVYYCATVYYYLAYGWSYSDMDYWGQGTQVTVSS,high polyreactivity
21,QVQLVESGGGLLQAGGSHRLSCAASGILVYNAMGWYTQAPGKERELVAAISARGGRTYYADSVKGRFTISRDNAKNTVYLQMNSLKPEDSAVYYCATLETTGVNYWGQGTQVTVSS,high polyreactivity
22,QVQLVESGGGLVQAGGSLRLSCAASGSIFRRYAMGWYRHAPGKEREFVAAITRSGGGTYYADSVKGRFTISRDNAKNTVSLQMNSLKPEDTAVYFCAKDVFVQRSRYPEGDYWGQGTQVTVSS,high polyreactivity

row,Sequence,polyreactivity (PSR sort gate)
1,QVQLVESGGGLVQAGGSLRLSCAASGIIFTSNTMGWYRQAPGKVREFVASINWNGSSTYADSVKGRFTISRDNAKYTVYLQMNSLKPEDTAVYSCNADYNRNSVQFSLYDYWGQGTQVTVSS,low polyreactivity
2,QVQLVESGGGLVQAGGSLRLSCAASGRIFLGNAMGWYRQAPGKESELVAAITYSGRSTYYADSVKGRFTISRDNAKNTVYLQMNSLKPEDTAVYYSAARQYWTTDLPFQRYYYWGQGTQVTVSS,low polyreactivity
3,QVQLVESGGGLVQAGGSLRLSSAASGRTFTYYAMGWYRQAPGTERELVAAISSGGRTDYADSVKGRFTISRDNAKNTVYLQMNSLKPEDTAVYYCNARPKVYYREYDYWGQGNQVTVSS,high polyreactivity
4,QVQLVESGGGVVQAGGSLRLSCAASGSIFKSYAMGWYRQAPGKERELVAAITWSGGSTHYADSVKGRFTISRDNAKNTVYLQMNSLKPEDTAVYYCAADGYTGQAELDSWGQGTQVTVSS,low polyreactivity
5,QVHLVESGGGLVQAGGSLRLSCAASGFIFYSNSMGWYRPAPGKERELVAAISSGGGSTRYADSVKGRFTISRDNAKNTVYLQMNSLKPEDTAVYYCASRDGYTIFRSTRYYYWGEGTQVTVSS,high polyreactivity
6,QVQLVESGGGLVQAGGSLRLSCAASGRILVLNAMGWYIQAPGKERELVADITSGGSTYYADSVKGRFTISRDNEKNTVYLQMISLKPEHTAVYYCAADWNTYPDYLQSYFVSYEYNYWGQGTLVTVSS,low polyreactivity
7,QVQLVESGGGLVQAGGSLRLSCAASGYTFGYYAMGWYRQAPGKERELVAAISSGGSTYYADSVKGRFTISRDNAKNTVYLQMNSLKPEDTAVYYCAVVRYLGDRGMNYWGQGTQVTVSS,low polyreactivity
8,QVQLVESGGGLVQAGGSLRLSCAASGFTFKGYAMGWYRQAPGKERELVAAITRGGSTYYADSVKGRFTISRDNAKNTVYLQMNSLKPEDTAVYYCAARGRGHGTTPNDYWGQGTQVTVSS,high polyreactivity
9,QVQLVESGGGLVQAGCSLRLICAASGRIFSTYAMGWYRQAPGKERELVAAITSRGGSTYYADSVKGRFTISRDNAKNTVYLQMNSLKPEDTAVYYCATESPYKWGGYRFYYWGQGTQVTVSS,high polyreactivity
10,QVQLVESGGGLVQAGGSLRLSCAASGRIFYYNDMGWYRQAPGKERELVAAITWTDDGTYYADSVKGRFTISRDYAKNTVYLQMNSLKPEDTAVYYFAAETFYGFEYWGQGTQVTLSS,low polyreactivity
11,QVQLVESGGGLVQAGGSLRLSCAASGFTTNYYARGWYRQAPGKERELVAAITTGGSTHYADSVKGRFTISRDNAKNTVYLQMNSLKPEDTAVYYCAAGTNRQQQRYFHHGGYYQYNYWGQGTQVTVSS,low polyreactivity
12,QVQLVESGGGIVQAGGSLRLSCAASGSTFYVNVMGRYRQAPGKERELVAGITIRDGATYYADSVKGRFTISRDNAKITVYLQMNSLNPEDTAVYYCARAGDGEYKRDYWGQGTQVTVSS,low polyreactivity
13,QVQLVESGGGLVQAGGSLRLSCAASGLILSRNVMGWYRQAPGKERELVAAINWSSGSTYYADSVKGRFTISRDNGKNTVSLQMNSLKPEDTAVYYCAATVFYDAEYDYWGQGSQVTVSS,high polyreactivity
14,QVQLVESGGGLFQAGGSLRLSCAASGLTFVDNSMGWYRQAPGKEREFVAAITKRGGRTYYADSVKGRFTISRDNAKNTVYLQMTSLKPEDTAVYYCARESGNDSSRRLDYWGQGTQVTVSS,low polyreactivity
15,QVQLVESGGGLVQAGGSLRLSCAASGRIFSTNAMGWYRQAPGKERELVATIRTSGGSTYYADSVKGRFTISRDNAKNTVYLQMNSLKPEDTAVYYCAARRFLHYTTYYGTGRYDYWGQGTQVTVSS,low polyreactivity
16,QVQLVESGGGLVQAGGSLRLSCAASGSTFYYYTMGWYRQAPGKEREFVAAITVGGGSTYYADSEKGRFTISRDNAKNTVYLQMNSLKPEDTAVYYCAKEVGRYLGTVSYEYDYWGQGTQVTVSS,high polyreactivity
17,QVQLVESGGGLVQAGGSLRLSCAASGITLYGNAMGWYRQAPGKEREFVAAISRSGDRTYYADSVKGRFTISRDNAKNTVYLPMYSLKPEDTAVYSCARDYRSYTGSYDTSYDYWGQGTQVTVSS,high polyreactivity
18,QVQLVESGGGLVQAGGSLRLSCAASGIIFGYNAMGCYRQAPGKERELVASIDVSGGITYYADSVKGRFTISRDNAKNTVYLQMNSLKPEDTAVYYCAAYRYGSRYGYEYWGQGTQVTVSS,high polyreactivity
19,QVQLVESGGGLVQAGGSLRLSCAASGSTFSAYGMGWYRQAPGKEMELVASISWNGGSTYYADSVQGRFTISGDNAKNTVYLQMNSLKPEDTAVYYCNTELVGHPDWLSWRYYYWGQGTQVTVSS,low polyreactivity
20,QVQLVESGGGLVQAGGSLRLSCAASGSIFNWYTMGWYRQAPGKERELVAVITQSGGSTYYADSVKGRFTISRDNAKNTVYLQMNSLKPEDTAVYYCAKRYWSYQYGYRMYYWGQGTQVTVSS,high polyreactivity
21,QVQLVESGGGLVQAGGSLRLSCAASGRIFDDYAMGWNRQAPGKERELVAAISSSVGNTYYADSVKGRFTISRDNAKYTVYLQMNSLKPEDTAVYYCADYSYVRSSYEVEYDYWGQATQVTVSS,low polyreactivity
